The target in test [1] is Multiple peptide resistance factor (MprF) from Pseudomonas aeruginosa, wild type, CPD-His construct after IP6 cleavage (Pseudomonas aeruginosa). In words: cryo-EM structure.
The target is the same in test [2]. In words: cryo-EM structure. This is another data set of the same source.

Read-outs that look alike come from different tables or passages of the source.

As to “Multiple peptide resistance factor (MprF) from Pseudomonas aeruginosa, wild type, CPD-His construct after IP6 cleavage (enzyme)”, the stoichiometry N in test [1] and in test [2] was 2 throughout.
